Data taken from patent publication US20260092103A1 (ALBERT EINSTEIN COLLEGE OF MEDICINE, published 2026).

Target: Recombinant Mtb protein GroEL2 (Mycobacterium tuberculosis, UniProt P9WPE7 1-540)
Sequence (P9WPE7 whole entry): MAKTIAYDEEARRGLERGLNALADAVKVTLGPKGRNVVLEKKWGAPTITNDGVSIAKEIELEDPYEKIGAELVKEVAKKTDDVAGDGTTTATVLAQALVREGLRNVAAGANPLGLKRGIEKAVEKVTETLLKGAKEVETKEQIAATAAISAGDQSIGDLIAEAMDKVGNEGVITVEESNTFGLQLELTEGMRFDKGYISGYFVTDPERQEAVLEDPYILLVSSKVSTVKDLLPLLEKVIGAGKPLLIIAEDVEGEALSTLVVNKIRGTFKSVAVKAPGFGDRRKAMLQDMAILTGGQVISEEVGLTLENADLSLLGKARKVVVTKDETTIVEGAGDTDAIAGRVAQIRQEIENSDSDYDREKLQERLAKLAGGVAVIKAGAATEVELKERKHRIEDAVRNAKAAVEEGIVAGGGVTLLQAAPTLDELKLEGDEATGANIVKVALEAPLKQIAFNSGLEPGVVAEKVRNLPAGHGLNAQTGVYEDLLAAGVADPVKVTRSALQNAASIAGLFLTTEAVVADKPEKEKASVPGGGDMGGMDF

B1: anti-GroEL2 antibody 103.11 (antibody, V domains shown)
VH: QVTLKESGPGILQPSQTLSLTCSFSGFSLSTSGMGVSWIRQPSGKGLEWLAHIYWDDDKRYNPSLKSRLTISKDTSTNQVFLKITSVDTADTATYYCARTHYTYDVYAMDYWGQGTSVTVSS
VL: QIVLTQSPAIMSASLGERVTMTCTASSSVSSSYLHWYRQKPGSSPKLWIYSASNLASGVPPRFSGSGSGTSYSLTISNMEAEDAATYYCHQYHRSPWTFGGGTKLEIKR
- EC50 (read off the curve): ~0.02 µg/mL
